The numbers were not newly measured in publication PMC3274258, which cites them from elsewhere.

“And” between values parts separate entries of the source, which are not always exact repeats. Equal values may be shown once. Read-outs that look alike come from different tables or passages of the source.

As usually defined, the pKa is the pH at which an ionisable group is half protonated. A word on the Kd: it is the free concentration of one partner at which half of the binding sites on the other are occupied at equilibrium, for simple one-to-one binding.

Data set [1] has as its target Halobacterial transducer of SRI (HsHtrI). As to the kind of experiment: not stated in the review (pKa determination quoted from ref 124). Conditions: pH.
In data set [2] the target is Halobacterial transducer of SRII, truncated (NpHtrII, pHtrII) (UniProt P42259). As to the kind of experiment: not stated in the review (pKa determination of ref 50). Conditions: pH.
Halobacterial transducer of SRII, truncated (NpHtrII, pHtrII), sequence (P42259 whole entry, the tested form may be a part): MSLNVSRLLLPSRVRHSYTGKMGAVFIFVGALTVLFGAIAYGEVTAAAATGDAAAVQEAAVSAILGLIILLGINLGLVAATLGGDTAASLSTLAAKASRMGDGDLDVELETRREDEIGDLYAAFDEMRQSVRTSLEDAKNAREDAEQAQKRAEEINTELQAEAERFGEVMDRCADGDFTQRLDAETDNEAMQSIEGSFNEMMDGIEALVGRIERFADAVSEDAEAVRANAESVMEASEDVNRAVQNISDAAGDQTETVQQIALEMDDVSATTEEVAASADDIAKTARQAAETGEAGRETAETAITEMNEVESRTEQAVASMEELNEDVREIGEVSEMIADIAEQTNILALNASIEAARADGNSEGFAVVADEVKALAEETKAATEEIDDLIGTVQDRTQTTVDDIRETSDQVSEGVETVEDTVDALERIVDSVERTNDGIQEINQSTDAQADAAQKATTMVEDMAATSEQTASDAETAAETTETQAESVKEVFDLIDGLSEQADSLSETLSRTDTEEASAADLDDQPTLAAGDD
For data set [3], the target named is Asp76 (UniProt position 76, GLRYIDWLVTT).
The target of data set [4] is HtrII (Natronomonas pharaonis) (UniProt P42259).
HtrII (Natronomonas pharaonis), sequence (P42259 whole entry): as the sequence (P42259 whole entry, the tested form may be a part) above
Data set [5] has the same target. The source holds these as a separate data set.
Data set [6] shares this target. The source holds these as a separate data set.
Data set [7] addresses Asp193 (UniProt position 193, LTPTVDVALIV). Conditions: dark (ground) state.
Data set [8] deals with Asp72. As to the kind of experiment: pH titration; the review does not name the technique, and UV-vis absorption of the retinal chromophore is inferred. Conditions: dark state.
The target in data set [9] is Salinibacter transducer of SRI (SrHtrI). In words: pH titration experiments (ref 123; detection not specified in the review).

SRII, sequence (P42196 whole entry): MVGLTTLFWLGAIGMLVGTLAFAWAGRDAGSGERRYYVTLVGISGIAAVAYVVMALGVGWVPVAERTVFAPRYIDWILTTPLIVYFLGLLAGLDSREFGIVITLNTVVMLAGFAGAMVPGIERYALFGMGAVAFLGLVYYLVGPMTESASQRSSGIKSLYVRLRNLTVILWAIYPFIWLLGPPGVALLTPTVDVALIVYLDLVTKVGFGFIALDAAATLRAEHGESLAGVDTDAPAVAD

Take Sensory rhodopsin I (HsSRI): the pKa, Asp76 of HsSRI (Schiff-base counterion) in data set [1] was 7.2 pH units and 8.5 pH units.

For “Sensory rhodopsin II (NpSRII, pharaonis phoborhodopsin, ppR)”, in data set [2], the pKa, Asp193 of NpSRII was 6.4 pH units and 5.6 pH units.

For “Sensory rhodopsin I (HsSRI) (Halobacterium salinarum)”, the figures for the pKa in data set [3] (HsSRI associated with HsHtrI) and in data set [3] (HsSRI without HsHtrI) were 8.5 and 7.2, respectively.

In the case of SRII (from UniProt P42196), the dissociation constant Kd in data set [4] was 15 µM; in data set [5], 0.16 µM; in data set [6] it was 5 µM.

As to “Sensory rhodopsin II (NpSRII; pharaonis phoborhodopsin, ppR) (Natronomonas pharaonis)”, the pKa in data set [7] (NpSRII bound to truncated NpHtrII (1-114 or 1-159)) is 5.6; in data set [7] (NpSRII transducer-free) it was 6.4.

On to “SrSRI-SrHtrI fusion (Salinibacter sensory rhodopsin I fused to its full-length transducer) (Salinibacter ruber)”, for which the pKa in [8] (SrSRI associated with SrHtrI (fusion construct)) is on record as 4.9.

Consider “Salinibacter sensory rhodopsin I (SrSRI)”, for which the pKa, Asp72 of SrSRI (Schiff-base counterion) in [9] was 4.3 pH units and 4.9 pH units.

Take “Salinibacter sensory rhodopsin I (SrSRI) (Salinibacter ruber)”: the pKa in data set [8] (SrSRI without SrHtrI) is 4.3.
